These results are taken from patent US20100267609A1 (OKLAHOMA MEDICAL RESEARCH FOUNDATION, published 2010).

For assay [1], the target named is T1, memapsin 2 (spontaneously activated promemapsin 2-T1; amino acids 43-456 and 45-456 of SEQ ID NO: 8) (human, UniProt P56817 41-454).
T1 construct: also called Mep2; M2
Nature of the assay: kinetic inhibition of memapsin 2, fluorogenic substrate.

The target in assay [2] is T2, memapsin 1 (amino acid residues 58-461 of SEQ ID NO: 4) (Homo sapiens (Human), UniProt Q9Y5Z0 63-466).
T2 construct: also called Mep1; M1
T2 sequence: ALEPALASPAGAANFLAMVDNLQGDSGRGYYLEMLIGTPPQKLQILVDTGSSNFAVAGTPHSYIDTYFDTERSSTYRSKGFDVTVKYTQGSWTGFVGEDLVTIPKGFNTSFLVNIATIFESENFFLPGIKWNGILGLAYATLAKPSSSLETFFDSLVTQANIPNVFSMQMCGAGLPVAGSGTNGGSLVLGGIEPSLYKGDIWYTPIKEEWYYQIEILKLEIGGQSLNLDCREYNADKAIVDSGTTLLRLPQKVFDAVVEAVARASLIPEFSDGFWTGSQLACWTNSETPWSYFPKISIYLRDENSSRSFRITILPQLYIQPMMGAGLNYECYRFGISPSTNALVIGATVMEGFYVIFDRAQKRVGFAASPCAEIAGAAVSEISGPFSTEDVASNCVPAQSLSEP
Nature of the assay: ratio of Ki apparent for memapsin 1 to that for memapsin 2.

In assay [3] the target is T1, memapsin 2 (spontaneously activated …). The experiment in a line: inhibition of cleavage of a fluorogenic substrate.
Assay [4] shares this target. The experiment in a line: inhibition of cleavage of fluorogenic substrate FS-2.
Assay [5] addresses T2, memapsin 1 (amino acid residues 58-461 …). Described as above.
In assay [6] the target is T1, memapsin 2 (spontaneously activated …). Nature of the assay: bead library probed with 4 nM memapsin 2, OM99-2 wash, anti-memapsin 2 IgG and alkaline phosphatase staining.

Usually Ki stands for the equilibrium dissociation constant of an inhibitor or competing ligand from its target.

Where no end group is shown, it is not given here. [ ]: non-standard residue; d: D form. FAM = 5-(and 6-)carboxyfluorescein; resin = not defined here; Ahx = NCCCCCC(=O)O

T1 sequence (P56817 41-454 Q214G): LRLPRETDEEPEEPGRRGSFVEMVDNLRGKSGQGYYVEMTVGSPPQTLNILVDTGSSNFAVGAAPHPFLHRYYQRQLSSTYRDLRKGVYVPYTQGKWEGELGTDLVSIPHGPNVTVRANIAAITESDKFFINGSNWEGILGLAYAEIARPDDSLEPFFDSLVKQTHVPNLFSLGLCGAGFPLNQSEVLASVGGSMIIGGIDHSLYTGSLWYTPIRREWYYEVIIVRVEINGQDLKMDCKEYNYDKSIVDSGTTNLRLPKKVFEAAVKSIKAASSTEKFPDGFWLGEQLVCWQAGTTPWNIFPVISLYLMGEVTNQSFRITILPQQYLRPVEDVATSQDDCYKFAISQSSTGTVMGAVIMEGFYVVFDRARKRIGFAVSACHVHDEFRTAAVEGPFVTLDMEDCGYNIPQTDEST

B1: CPI-1: FAM-Ahx-(EVNL*AAEF)-G-([…]) (peptide)
peptide: {FAM-Ahx}-EVNLAAEFGYGRKKRRQRRR
modifications: numbers in words are those of the source; also: Leu4*Ala6: hydroxyethylene isostere -CH(OH)-CH2- replaces the amide bond
notes: OM99-2 joined through Gly to HIV tat residues 47-57; also called Fs[OM99-2]tat
With B1, in assay [1], the Ki apparent is 39 nM.

B2: CPI-2: FAM-Ahx-(ELDL*AVEF)-GG-(RRRRRRRRR) (peptide)
peptide: {FAM-Ahx}-ELDLAVEFGG[dR][dR][dR][dR][dR][dR][dR][dR][dR]
modifications: numbers in words are those of the source; also: Leu4*Ala6: hydroxyethylene isostere -CH(OH)-CH2- replaces the amide bond
notes: OM00-3 joined through Gly-Gly to nine D-arginines
Take B2: the Ki apparent in assay [1] turned out to be 58 nM.

B3: CPI-3: (ELDL*AVEF)-GG-(RRRRRRRRR) (peptide)
peptide: ELDLAVEFGG[dR][dR][dR][dR][dR][dR][dR][dR][dR]
modifications: numbers in words are those of the source; also: Leu4*Ala6: hydroxyethylene isostere -CH(OH)-CH2- replaces the amide bond
Take B3: in assay [1], the Ki is 35 nM.

B4: OM00-3 (ELDL*AVEF; Glu-Leu-Asp-Leu*Ala-Val-Glu-Phe) (peptide)
peptide: ELDLAVEF
modifications: numbers in words are those of the source; also: Leu4*Ala5: hydroxyethylene transition-state isostere -CH(OH)-CH2- replaces the peptide bond
As for B4, the “Ki apparent (M1/M2)” value in assay [2] was 0.59. In assay [3], the Ki was found to be 0.31 nM, the “fold improvement of Ki relative to OM99-2” value was found to be 5.2 fold and the “fold lower Ki than OM99-2” value is around 5 fold. Moreover, the Ki apparent in assay [4] worked out at 0.31 nM. Besides, in assay [5], the Ki apparent was 0.18 nM.

B5: library bead Gly-Ile-Asp-Leu*Ala-Ala-Gln-Phe-Arg-Met-Gly-Gly-resin (peptide)
peptide: GIDLAAQFRMGG-resin
modifications: reading uncertain; also: hydroxyethylene isostere between Leu4 and Ala5, printed as Gly-Ile-Asp-Leu*Ala-Ala-Gln-Phe-Arg-Met-Gly-Gly-resin
Regarding B5, in assay [6], the binding result is “binds”.
